Among the data in patent US20230008694 are activity values, retold here.

Holding throughout (assay): cell_activity
Data set [1] concerns GmFAD2_T04-L1 half-TALEN (synthetic (TAL effector-FokI)). Particulars: pair with T04-R1 at FAD2-1A (FAD2-1B 3.54).
Data set [2] relates to GmFAD3_T08-L1 half-TALEN (synthetic (TAL effector-FokI)).
Data set [3] has as its system GmFAD3_T09-L1 half-TALEN (synthetic (TAL effector-FokI)).
The test system of data set [4] is GmFAD2_T02-L1 half-TALEN (synthetic (TAL effector-FokI)). Particulars: pair with T02-R1 at FAD2-1A (FAD2-1B 1.19).
Data set [5] deals with GmFAD2_T03-L1 half-TALEN (synthetic (TAL effector-FokI)). Particulars: pair with T03-R1 at FAD2-1A (FAD2-1B 3.94).
The subject of data set [6] is GmFAD2_T02-R1 half-TALEN (synthetic (TAL effector-FokI)). Particulars: pair with T02-L1 at FAD2-1A (FAD2-1B 1.19).
The test system of data set [7] is GmFAD2_T04-R1 half-TALEN (synthetic (TAL effector-FokI)). To be noted: pair with T04-L1 at FAD2-1A (FAD2-1B 3.54).
Data set [8] deals with GmFAD2_T01-R1 half-TALEN (synthetic (TAL effector-FokI)). To be noted: pair with T01-L1 at FAD2-1A (FAD2-1B 3.41).
Data set [9] deals with GmFAD3_T08-R1 half-TALEN (synthetic (TAL effector-FokI)).
In data set [10] the test system is GmFAD3_T09-R1 half-TALEN (synthetic (TAL effector-FokI)).
Data set [11] relates to GmFAD2_T03-R1 half-TALEN (synthetic (TAL effector-FokI)). Particulars: pair with T03-L1 at FAD2-1A (FAD2-1B 3.94).
For data set [12], the system named is GmFAD2_T01-L1 half-TALEN (synthetic (TAL effector-FokI)). To be noted: pair with T01-R1 at FAD2-1A (FAD2-1B 3.41); soybean protoplasts.

“TTGTTTATGACCTTTCA (double strand) [GmFAD2_T04-L1 half-site]” showed an activity in [1] of 4.67 % NHEJ.

“TTAGCCACAGAACTCAC (double strand) [GmFAD3_T08-L1 half-site]”: the activity in [2] (pair with T08-R1 at FAD3A (FAD3B 14.57), soybean protoplasts 48 h) came to 22.9 % NHEJ; in data set [3] (pair with T08-R1 at FAD3A (FAD3B 11.17), mismatched left half-site) it was 12.4 % NHEJ.

As to “TATGTTGTTTATGACCT (double strand) [GmFAD2_T02-L1 half-site]”, the activity in data set [4] came to 0.91 % NHEJ.

On to “TCCTATGTTGTTTATGA (double strand) [GmFAD2_T03-L1 half-site]”, for which the activity in data set [5] stood at 4.91 % NHEJ.

“TTAGCCACAGGACTCAC (double strand) [GmFAD3_T09-L1 half-site]”: the activity is 7.6 % NHEJ in [2] (pair with T09-R1 at FAD3C, mismatched left half-site, with T08-R1 3.59) and 11.3 % NHEJ in data set [3] (pair with T09-R1 at FAD3C, multiplex T09-L1/T08-R1/T09-R1 21.42 (Table 2)).

As for “TGGTGGCAATGTAGAAA (double strand) [GmFAD2_T02-R1 half-site]”, in [6], the activity turned out to be 0.91 % NHEJ.

As for “TAGGTGGTGGCAATGTA (double strand) [GmFAD2_T04-R1 half-site]”, in data set [7], the activity was found to be 4.67 % NHEJ.

“TTGAGTTGGCCAACAGT (double strand) [GmFAD2_T01-R1 half-site]” registered an activity in data set [8] of 3.95 % NHEJ.

As to “CATGTTGAGAAGGATGA (double strand) [GmFAD3_T09-R1 half-site]”, the activity in data set [9] (pair with T09-L1 at FAD3C, mismatched right half-site, with T08-L1 3.59) turned out to be 5.98 % NHEJ; in [10] (pair with T09-L1 at FAD3C, with T08-L1 7.60) it was 11.3 % NHEJ.

With “TGGCAATGTAGAAAATG (double strand) [GmFAD2_T03-R1 half-site]”, the activity in data set [11] is 4.91 % NHEJ.

In data set [12], “TCTCAAGGGTTCCAAAC (double strand) [GmFAD2_T01-L1 half-site]” registered an activity of 3.95 % NHEJ.

In the case of “CACATTGAGAAGGATGA (double strand) [GmFAD3_T08-R1 half-site]”, the activity in data set [9] (pair with T08-L1 at FAD3A (FAD3B 14.57), with T09-L1 12.37 at FAD3A, 11.17 at FAD3B) was 22.9 % NHEJ; in data set [10] (pair with T08-L1 at FAD3A (FAD3B 1.80), mismatched right half-site, with T09-L1 6.46 (FAD3B 3.61)), 6.56 % NHEJ.
